Reference: US20110053865A1 (Ablynx, published 2011)
Positions count from the first letter of the chain named. Several values for one entry are separate records, joined by “and”; a condition that tells them apart may be missing. Identical values can stand only once. Like-named read-outs stand apart in the source and are kept apart here. Each block holds one binder with its values, some of them ahead of it.

Assays:
[1] = target: T1, recombinant human IL-23 (p19/p40) (human, UniProt Q9NPF7 20-189; P29460 23-328); experiment: cell-based or functional assay
T1 sequence (looked up) 1: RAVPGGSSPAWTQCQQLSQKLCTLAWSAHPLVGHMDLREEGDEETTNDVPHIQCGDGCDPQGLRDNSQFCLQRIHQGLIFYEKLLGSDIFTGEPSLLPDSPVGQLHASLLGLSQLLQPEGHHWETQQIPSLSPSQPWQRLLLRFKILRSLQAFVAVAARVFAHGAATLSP
T1 sequence (looked up) 2: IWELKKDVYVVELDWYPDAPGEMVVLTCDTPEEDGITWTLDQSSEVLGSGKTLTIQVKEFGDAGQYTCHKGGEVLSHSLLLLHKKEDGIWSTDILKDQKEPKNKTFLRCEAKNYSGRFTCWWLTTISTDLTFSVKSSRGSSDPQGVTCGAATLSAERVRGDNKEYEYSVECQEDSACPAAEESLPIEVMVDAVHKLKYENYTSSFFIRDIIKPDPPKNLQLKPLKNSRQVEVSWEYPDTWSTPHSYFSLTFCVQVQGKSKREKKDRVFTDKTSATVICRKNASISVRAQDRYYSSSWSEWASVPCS

[2] = target: T1, recombinant human IL-23 (p19/p40); experiment: cell-based or functional assay; remark: listed apart in the source
[3] = target: T1, recombinant human IL-23 (p19/p40); experiment: cell-based or functional assay; remark: listed apart in the source
[4] = target: T1, recombinant human IL-23 (p19/p40); experiment: SPR Biacore, hIL-23 on chip
Method: Nanobody binding was assessed at one concentration (100 nM). Each Nanobody was injected for 4 minutes at a flow rate of 45 μl/min to allow binding to chip-bound antigen. Next, binding buffer without Nanobody was sent over the chip at the same flow rate to allow spontaneous dissociation of bound Nanobody.

cynomolgus IL-23 [5] = target: T2, cynomolgus IL-23 (cynomolgus); experiment: SPR Biacore, cyno IL-23 on chip
T2 construct: also called cyno IL-23; cIL-23

[6] = target: T1, recombinant human IL-23 (p19/p40); experiment: SPR Biacore, hIL-23
[7] = target: T1, recombinant human IL-23 (p19/p40); experiment: SPR Biacore, hIL-23; remark: listed apart in the source
[8] = target: T1, recombinant human IL-23 (p19/p40); experiment: cell-based or functional assay; remark: listed apart in the source
[9] = target: T1, recombinant human IL-23 (p19/p40); experiment: SPR Biacore, hIL-23; remark: listed apart in the source
[10] = target: T1, recombinant human IL-23 (p19/p40); experiment: SPR Biacore, hIL-23; remark: listed apart in the source
[11] = target: T1, recombinant human IL-23 (p19/p40); experiment: SPR Biacore, eBiosc hIL-23
[12] = target: T1, recombinant human IL-23 (p19/p40); experiment: alpha-screen, hIL-23/IL-23R
[13] = target: T1, recombinant human IL-23 (p19/p40); experiment: cell-based or functional assay; remark: listed apart in the source
cynomolgus IL-23 [14] = target: T2, cynomolgus IL-23; experiment: cell-based or functional assay
[15] = target: T1, recombinant human IL-23 (p19/p40); experiment: SPR Biacore 3000, hIL-23 on chip
Method: Binding kinetics of the second round variants are in depth analysed by Surface Plasmon Resonance (Biacore 3000). […] Nanobody binding was assessed at one concentration (100 nM). Each Nanobody was injected for 4 minutes at a flow rate of 45 μl/min to allow binding to chip-bound antigen. Next, binding buffer without Nanobody was sent over the chip at the same flow rate to allow spontaneous dissociation of bound Nanobody.

cynomolgus IL-23 [16] = target: T2, cynomolgus IL-23; experiment: alpha-screen, cIL-23/IL-23R
[17] = target: T1, recombinant human IL-23 (p19/p40); experiment: 'potency assay', not specified (probably the inhibition ELISA of Example 34)
[18] = target: T1, recombinant human IL-23 (p19/p40); experiment: comp alpha-screen hIL-23
cynomolgus IL-23 [19] = target: T2, cynomolgus IL-23; experiment: cell-based or functional assay; remark: listed apart in the source
[20] = target: T1, recombinant human IL-23 (p19/p40); experiment: cell-based or functional assay; remark: listed apart in the source
cynomolgus IL-23 [21] = target: T2, cynomolgus IL-23; experiment: cell-based or functional assay; remark: listed apart in the source
[22] = target: T1, recombinant human IL-23 (p19/p40); experiment: cell-based or functional assay; remark: listed apart in the source
[23] = target: T1, recombinant human IL-23 (p19/p40); experiment: cell-based or functional assay; remark: listed apart in the source

B3: P23IL81A12 (VHH)
VHH: EVQLVESGGGLVQAGGSLRLSCAASGRTLSSYAMGWFRQAPGKEREFVARISQGGTAIYYADSVKGRFTISRDNAKNTVYLQMNSLKPEDTAVYYCAKDPSPYYRGSAYLLSGSYDSWGQGTQVTVSS
notes: p19- Nanobody
koff [6]: 0.00022 s⁻¹
Kd [7]: 0.38 nM
koff [7]: 0.00021 s⁻¹
kon [7]: 560000 M⁻¹ s⁻¹

B4: P23IL81A12-BASIC (VHH)
VHH: B3 VHH with A14P, V79L, K87R, Q123L
koff [6]: 0.00024 s⁻¹

B7: P23IL81G2-BASIC (VHH, name in Kabat numbering)
VHH: EVQLVESGGGLVQPGGSLRLSCIASGLPFSTKSMGWFRQAPGKGREFVARISPGGTSRYYGDFVKGRFAISRDNAKNTTWLQMNSLKAEDTAVYYCASGERSTYIGSNYYRTNEYDYWGTGTLVTVSS
notes: The sentence giving the two substitutions prints 'P23IL81A12basic' within the 81G2 paragraph
koff [9]: 0.00032 s⁻¹

B8: P23IL81G2v11 (VHH)
VHH: B7 VHH with V5L, I23A, A49S, A69T, A75S, T79L, W80Y, K87R, T120Q
notes: Final humanization variant of 81G2
koff [10]: 0.00031 s⁻¹
kon [10]: 610000 M⁻¹ s⁻¹
Kd [11]: 0.51 nM

B9: P23IL81G2 (VHH)
VHH: B7 VHH with G44E, L123Q
notes: p19- Nanobody
koff [9]: 0.00034 s⁻¹
koff [10]: 0.00039 s⁻¹
kon [10]: 520000 M⁻¹ s⁻¹
Kd [11]: 0.75 nM

B10: P23IL80D10 (VHH)
VHH: EVQLVESGGGLVQAGGSLRLSCAASGRTFEGNPMGWFRQASGKKREFVASIDWSGGITSYADSVKGRFTISRDNAKNTVYLQMNSLKPEDTAVYYCAASARFGSGSYYDLMYDYWGQGTQVTVSS
notes: p40- Nanobody
koff [4]: 9.7e-05 s⁻¹
koff (cynomolgus IL-23 [5]): 0.000105 s⁻¹ and 7.9e-05 s⁻¹

B12: P23IL119A3v16 (VHH)
VHH: EVQLLESGGGLVQPGGSLRLSCAASGRIFSLPASGNIFNLLTIAWYRQAPGKGRELVATINSGSRTYYADSVKGRFTISRDNSKKTLYLQMNSLRPEDTAVYYCQTSGSGSPNFWGQGTLVTVSS
notes: Final humanization variant of 119A3
IC50 [12]: 1.24 nM
IC50, splenocyte assay hIL-23 [13]: 45.1 nM
IC50, splenocyte assay cIL-23 (cynomolgus IL-23 [14]): 82.6 nM
koff [15]: 0.0055 s⁻¹ and 0.0019 s⁻¹
IC50 (cynomolgus IL-23 [16]): 0.7 nM

B13: P23IL37D5v16 (VHH)
VHH: EVQLLESGGGLVQPGGSLRLSCAASGFTLDYLAIGWFRQAPGKGREGVSCVSSSGQYTYYADSVKGRFTISRDNSKNTVYLQMNSLRPEDTAVYYCATDPECYRVRGYYNGEYDYWGQGTLVTVSS
notes: Humanization variant of 37D5
IC50 [17]: 0.0888 nM
IC50 [18]: 0.044 nM

B16: P23IL119A3-35GS-81G2-GGGC-PEG40 linear (bispecific antibody)
chain: EVQLVESGGGLVQAGGSLRLSCAASGRIFSLPASGNIFNLLTIAWHRQAPGMQRELVATINSGSRTNYADSVKGRFTISRDNAQKTVYLQMNNLKPEDTAVYYCQTSGSGSPNFWGQGTQVTVSSGGGGSGGGGSGGGGSGGGGSGGGGSGGGGSGGGGSEVQLVESGGGLVQPGGSLRLSCIASGLPFSTKSMGWFRQAPGKEREFVARISPGGTSRYYGDFVKGRFAISRDNAKNTTWLQMNSLKAEDTAVYYCASGERSTYIGSNYYRTNEYDYWGTGTQVTVSSGGGC
modifications: linear mPEG40 (maleimide) on the C-terminal Cys of GGGC
IC50, splenocyte assay, 19 pM hIL-23 [2]: 7.1 pM
IC50, splenocyte assay, 3.8 pM cIL-23 (cynomolgus IL-23 [19]): 4.7 pM
IC50, splenocyte assay, 19 pM hIL-23 [20]: 7.1 pM
IC50, splenocyte assay, 3.8 pM cIL-23 (cynomolgus IL-23 [21]): 4.7 pM
IC50, BA/F3 proliferation assay, 76 pM hIL-23 [22]: 71 pM
IC50, BAF3 proliferation assay, 76 pM hIL-23 [23]: 58.5 pM

B17: P23IL119A3-35GS-81G2-GGGC-PEG40 branched (bispecific antibody)
chain: B16 chain
modifications: branched mPEG40 (maleimide) on the C-terminal Cys of GGGC
IC50, splenocyte assay, 19 pM hIL-23 [2]: 5.6 pM
IC50, splenocyte assay, 3.8 pM cIL-23 (cynomolgus IL-23 [19]): 5.3 pM
IC50, BAF3 proliferation assay, 76 pM hIL-23 [23]: 61.2 pM

More lines, now with the values ahead:

IC50, splenocyte assay, 37 pM hIL-23 [1]: 42 pM
IC50, splenocyte assay, 19 pM hIL-23 [2]: 26 pM
IC50, splenocyte assay (mIL-17) [3]: 0.03 to 0.06 nM
B1: P23IL-121A2-35GS-119G7 (bispecific antibody)
chain: EVQLVESGGGLVQAGGSLRLSCAASGSIFNFNYMGWFRQAPGKEREFVAAIRWSGSSTYYADSVKGRFTISRDDAKNTVALQMNSLKPEDTAIYYCALRKGIPYSTSDRVIKGVNDYDYWGQGTQVTVSSGGGGSGGGGSGGGGSGGGGSGGGGSGGGGSGGGGSEVQLVESGGGLVQAGGSLTLSCAVSGLTFNNYAMGWFRQVPGKEREFVAAISRSGLRTFYSDSVKGRFTISRDSAKSTVYVQMNNLKPEDTAVYFCAADRRTYYSEGPSLTDTLRYDYWGQGTQVTVSS

koff [4]: 0.00059 s⁻¹
koff (cynomolgus IL-23 [5]): 0.012 s⁻¹
B2: P23IL 81A1 (VHH)
VHH: EVQLVESGGGLVQTGGSLRLSCAASVINFRLADMDWYRQALGKQRELVASISTGYRTNYADFVKGRFTISRDNAKNTVYLQMDSLKPEDTAVYYCAARDLRGLRVDYWGQGTQVTVSS

IC50, splenocyte assay, 37 pM hIL-23 [1]: 4760 pM
B5: P23IL-121A2-9GS-119G7 (bispecific antibody)
chain: EVQLVESGGGLVQAGGSLRLSCAASGSIFNFNYMGWFRQAPGKEREFVAAIRWSGSSTYYADSVKGRFTISRDDAKNTVALQMNSLKPEDTAIYYCALRKGIPYSTSDRVIKGVNDYDYWGQGTQVTVSSGGGGSGGGSEVQLVESGGGLVQAGGSLTLSCAVSGLTFNNYAMGWFRQVPGKEREFVAAISRSGLRTFYSDSVKGRFTISRDSAKSTVYVQMNNLKPEDTAVYFCAADRRTYYSEGPSLTDTLRYDYWGQGTQVTVSS

IC50, splenocyte assay, 19 pM hIL-23 [8]: 94 pM
IC50, splenocyte assay, 19 pM hIL-23 [2]: 154 pM
IC50, splenocyte assay (mIL-17) [3]: ~0.09 nM
B6: P23IL-121A2-35GS-81G2 (bispecific antibody)
chain: EVQLVESGGGLVQAGGSLRLSCAASGSIFNFNYMGWFRQAPGKEREFVAAIRWSGSSTYYADSVKGRFTISRDDAKNTVALQMNSLKPEDTAIYYCALRKGIPYSTSDRVIKGVNDYDYWGQGTQVTVSSGGGGSGGGGSGGGGSGGGGSGGGGSGGGGSGGGGSEVQLVESGGGLVQPGGSLRLSCIASGLPFSTKSMGWFRQAPGKEREFVARISPGGTSRYYGDFVKGRFAISRDNAKNTTWLQMNSLKAEDTAVYYCASGERSTYIGSNYYRTNEYDYWGTGTQVTVSS

IC50, splenocyte assay (mIL-17) [3]: ~1.5 nM
B11: P23IL-121A2 (VHH)
VHH: EVQLVESGGGLVQAGGSLRLSCAASGSIFNFNYMGWFRQAPGKEREFVAAIRWSGSSTYYADSVKGRFTISRDDAKNTVALQMNSLKPEDTAIYYCALRKGIPYSTSDRVIKGVNDYDYWGQGTQVTVSS

koff [4]: 0.0002 s⁻¹
koff (cynomolgus IL-23 [5]): 0.0024 s⁻¹
B14: P23IL 84G1 (VHH)
VHH: EVQLVESGGGMVQAGGSLRLSCTASGLTDNSYAMGWFRRAPGKEREFLTGLTLSGGSTYYADSVKGRFTTSRDSQKNTVSLQMNSLKPEDTAVYYCAANRFGYGSAAYTPDNYNYWAQGTQVTVSS
notes: p40- Nanobody

koff [4]: 0.001 s⁻¹
koff (cynomolgus IL-23 [5]): 0.0001 s⁻¹
B15: P23IL 22D10 (VHH)
VHH: EVQLVESGGGLVQAGASLRLSCAASGRTFRSYNMGWLRQAPGKEREFVATISWNAGIPYYADSVKGRFTISRDNAKNTVYLQMNSLKPEDTAVYYCAASNSWSSSARFYDYWGQGTQVTVSS
notes: p40- Nanobody
